The target of this assay is Gq-coupled receptors. The experiment in a line: cell-based or functional assay.

B1: GαqG66D, P21279 1-359 (protein)
chain: MTLESIMACCLSEEAKEARRINDEIERHVRRDKRDARRELKLLLLGTGESGKSTFIKQMRIIHGSDYSDEDKRGFTKLVYQNIFTAMQAMIRAMDTLKIPYKYEHNKAHAQLVREVDVEKVSAFENPYVDAIKSLWNDPGIQECYDRRREYQLSDSTKYYLNDLDRVADPSYLPTQQDVLRVRVPTTGIIEYPFDLQSVIFRMVDVGGQRSERRKWIHCFENVTSIMFLVALSEYDQVLVESDNENRMEESKALFRTIITYPWFQNSSVILFLNKKDLLEEKIMYSHLVDYFPEYDGPQRDAQAAREFILKMFVDLNPDSDKIIYSHFTCATDTENIRFVFAAVKDTILQLNLKEYNLV
modifications: not fully specified
B1 showed a decrease in IP1 accumulation of 20%.

(Values after patent US20050042720A1, “Novel promiscuous G alpha protein mutants and their use” (7TM Pharma A/S, priority 2003, published 2005).)
